According to article PMC12216489, “Deep mutational scanning identifies Cas1 and Cas2 variants that enhance type II-A CRISPR-Cas spacer acquisition” (Nature Communications, 2025):
Where a chain is given by its changes, count along the chain named. Names and notes keep the numbering of the source. One block for each binder: values may come before it.

Experiments:
Test in all cases: SEC; analytical SEC on Superdex 200 Increase 10/300 GL in SEC buffer (20 mM HEPES pH 7.5, 500 mM NaCl, 5% v/v glycerol, 5 mM DTT) at 4 °C; Cas1 variants (15-100 μM, 2 equiv.) mixed with Cas2 variants (1 equiv.), incubated at 4 °C for 1 h before injection; fractions analysed by SDS-PAGE
Conditions in all cases: both partners purified
[1] = target: T1, Streptococcus pyogenes Cas1 (S. pyogenes, UniProt Q99ZW1 1-289)
T1 construct: Cas1 of the Streptococcus pyogenes SF370 type II-A CRISPR-Cas locus; One of the plasmids pRAH246, pRAH248 or pRAH249; which plasmid holds which variant is in Supplementary Data 2; Fractions with cleaved Cas1 were pooled after SUMO protease digestion; also called wild-type Cas1; source: E. coli Rosetta 2(DE3) BL21, purified (Ni-NTA, SUMO protease, HiTrap Heparin, Superdex 200)
T1 sequence (looked up): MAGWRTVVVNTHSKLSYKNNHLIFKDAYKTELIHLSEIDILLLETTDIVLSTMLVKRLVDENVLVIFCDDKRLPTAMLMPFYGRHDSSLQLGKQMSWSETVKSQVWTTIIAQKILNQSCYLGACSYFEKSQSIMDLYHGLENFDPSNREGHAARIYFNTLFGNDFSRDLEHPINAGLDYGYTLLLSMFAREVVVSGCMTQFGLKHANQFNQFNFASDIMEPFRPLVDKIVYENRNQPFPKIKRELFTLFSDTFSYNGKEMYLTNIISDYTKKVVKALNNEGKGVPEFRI

[2] = target: T2, Streptococcus pyogenes Cas1 R5A (S. pyogenes, UniProt Q99ZW1 1-289, R5A)
T2 construct: Cas1 of the Streptococcus pyogenes SF370 type II-A CRISPR-Cas locus with R5A; One of the plasmids pRAH246, pRAH248 or pRAH249; which plasmid holds which variant is in Supplementary Data 2; source: E. coli Rosetta 2(DE3) BL21, purified (Ni-NTA, SUMO protease, HiTrap Heparin, Superdex 200)
T2 sequence (looked up): T1 sequence (looked up) with R5A

[3] = target: T3, Streptococcus pyogenes Cas1 R5K (S. pyogenes, UniProt Q99ZW1 1-289, R5K)
T3 construct: Cas1 of the Streptococcus pyogenes SF370 type II-A CRISPR-Cas locus with R5K; One of the plasmids pRAH246, pRAH248 or pRAH249; which plasmid holds which variant is in Supplementary Data 2; source: E. coli Rosetta 2(DE3) BL21, purified (Ni-NTA, SUMO protease, HiTrap Heparin, Superdex 200)
T3 sequence (looked up): T1 sequence (looked up) with R5K

- binding result [1]: binds
- binding result [2]: binds
- binding result [3]: binds
B1: Streptococcus pyogenes Cas2 (natural protein, S. pyogenes, UniProt Q99ZW0 1-113, looked up)
chain: MSYRYMRMILMFDMPTDTAEERKAYRKFRKFLLSEGFIMHQFSIYSKLLLNNTANNAMIGRLREHNPNKGNITLLTVTEKQFARMIYLHGERNNCIANSDERLVFLGEAFDES
notes: Cas2 of the Streptococcus pyogenes SF370 type II-A CRISPR-Cas locus; One of the plasmids pRAH247, pRAH272 or pRAH273; which plasmid holds which variant is in Supplementary Data 2; Same protocol as for Cas1; also called wild-type Cas2; source: E. coli Rosetta 2(DE3) BL21, purified (Ni-NTA, SUMO protease, HiTrap Heparin, Superdex 200)

- binding result [1]: binds
B2: Streptococcus pyogenes Cas2 Y5A (natural protein, S. pyogenes, UniProt Q99ZW0 1-113, looked up)
chain: B1 chain with Y5A
notes: Cas2 of the Streptococcus pyogenes SF370 type II-A CRISPR-Cas locus with Y5A; One of the plasmids pRAH247, pRAH272 or pRAH273; which plasmid holds which variant is in Supplementary Data 2; source: E. coli Rosetta 2(DE3) BL21, purified (Ni-NTA, SUMO protease, HiTrap Heparin, Superdex 200)

- binding result [1]: binds
B3: Streptococcus pyogenes Cas2 Y5F (natural protein, S. pyogenes, UniProt Q99ZW0 1-113, looked up)
chain: B1 chain with Y5F
notes: Cas2 of the Streptococcus pyogenes SF370 type II-A CRISPR-Cas locus with Y5F; One of the plasmids pRAH247, pRAH272 or pRAH273; which plasmid holds which variant is in Supplementary Data 2; source: E. coli Rosetta 2(DE3) BL21, purified (Ni-NTA, SUMO protease, HiTrap Heparin, Superdex 200)
